Ratio to parent data for seven variants are collected here from article PMC10869706, “Chp1 is a dedicated chaperone at the ribosome that safeguards eEF1A biogenesis” (Nature Communications, 2024).

The labels stand for the following.
B1: Chp1 (in yeast cells expressing V5-eEF1A) [yeast (S. cerevisiae)] / WT eEF1A (V5-TEF2) [yeast (S. cerevisiae)] (parent complex)
chain 1: MSTFNAETADNLEDIEKQFAVVAVEQAETYWKLLTSVPGSKLRLTKFDDEIYENFMERFPEYKDVERVKKFTEEELKTKEAKERWRKFFTIFEKKIEDYNFGTLLRTDASAEYGQFTTCFVVRLQFYAFEIARNKHGLNDWIVGQK
chain 2: MGKEKSHINVVVIGHVDSGKSTTTGHLIYKCGGIDKRTIEKFEKEAAELGKGSFKYAWVLDKLKAERERGITIDIALWKFETPKYQVTVIDAPGHRDFIKNMITGTSQADCAILIIAGGVGEFEAGISKDGQTREHALLAFTLGVRQLIVAVNKMDSVKWDESRFQEIVKETSNFIKKVGYNPKTVPFVPISGWNGDNMIEATTNAPWYKGWEKETKAGVVKGKTLLEAIDAIEQPSRPTDKPLRLPLQDVYKIGGIGTVPVGRVETGVIKPGMVVTFAPAGVTTEVKSVEMHHEQLEQGVPGDNVGFNVKNVSVKEIRRGNVCGDAKNDPPKGCASFNATVIVLNHPGQISAGYSPVLDCHTAHIACRFDELLEKNDRRSGKKLEDHPKFLKSGDAALVKFVPSKPMCVEAFSEYPPLGRFAVRDMRQTVAVGVIKSVDKTEKAAKVTKAAQKAAKK

Variants of B1 are the subject of the experiment. The experiment in a line: co-IP (IP α-V5, blot α-Chp1), quantified; parent: 1; read off a plot.
As to chain 2 P331L, the ratio to parent was roughly 2.4.

On to chain 2 A125E, for which the ratio to parent is roughly 0.5.

With chain 2 G382R, the ratio to parent is roughly 0.5.

For the variant chain 2 G70S, the ratio to parent is roughly 0.25.

For chain 2 R264W, the ratio to parent is roughly 0.3.

For the variant chain 2 R421C, the ratio to parent is roughly 1.2.

chain 2 D91N: the ratio to parent was roughly 0.45.
